Measurements reported in the supplement of paper PMC7877785.
± gives the uncertainty stated by the source.

Assay: self-splicing fitness, log relative to wild type (ln ratio); higher = more splicing; Tetrahymena group I intron in knt gene, E. coli kanamycin selection, DiMSum; sequences stand for … in CUCUCU…GGAGGGAAAAGUUAUCAGGCAUGCACCUGGUAGCUAGUCUUUAAACCAAUAGAUUGCAUCGGUUUAAAAGGCAAGACCGUCAAAUUGCGGGAAAGGGGUCAACAGCCGUUCAGUACCAAGUCUCAGGGGAAACUUUGAGAUGGCCUUGCAAAGGGUAUGGUAAUAAGCUGACGGACAUGGUCCUAACCACGCAGCCAAGUCCUAAGUCAACAGAUCUUCUGUUGAUAUGGAUGCAGUUCACAGACUAAAUGUCGGUCGGGGAAGAUGUAUUCUUCUCAUAAGAUAUAGUCGGACCUCUCCUUAAUGGGAGCUAGCGGAUGAAGUGAUGCAACACUGGAGCCGCUGGGAACUAAUUUGUAUGCGAAAGUAUAUUGAUUAGUUUUGGAGUACUCGUGGUCG
How it was run: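 Colonies from six replicate transformations of E. coli BL21(DE3) were pooled and amplicon-sequenced on an Illumina HiSeq 2500. The library placed an intron with all eight P1ex-region nucleotides randomised inside the knt kanamycin-resistance gene on pET-22b(+), and cells grew overnight at 37°C or 30°C on LB agar with or without 25 μg/mL kanamycin (plus 100 μg/mL carbenicillin, 50 μM IPTG, 0.2% rhamnose). Fitness is the DiMSum error-weighted combination of wild-type-normalised replicate fold changes, kanamycin versus none.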

Row | Sequence | self-splicing fitness (ln) (30 °C) | self-splicing fitness (ln) (37 °C)
1 | GUGCAGCAAUAUUACGCGUU | -2.7 ± 0.11 | -1.18 ± 0.1
2 | GGUGAGCAAUAUUACGCGUA | -1.95 ± 0.3 | -0.54 ± 0.21
3 | ACAGAGCAAUAUUACGAAGU | -2.65 ± 0.14 | -2.58 ± 0.29
4 | GGGGAGCAAUAUUACGUAGC | -2.01 ± 0.24 | -1.91 ± 0.36
5 | UACCAGCAAUAUUACGCGAU | -2.6 ± 0.17 | -0.608 ± 0.15
6 | CUGCAGCAAUAUUACGCCGC |  | -2.23 ± 0.45
7 | GGCCAGCAAUAUUACGAGAU | -2.68 ± 0.18 | -2.82 ± 0.24
8 | UCGCAGCAAUAUUACGCGGC |  | -1.94 ± 0.26
9 | GUUCAGCAAUAUUACGAAAG | -0.36 ± 0.24 | 0.462 ± 0.22
10 | AUUGAGCAAUAUUACGGUUC | -3.69 ± 0.33 | -2.16 ± 0.25
11 | ACUAAGCAAUAUUACGAUCG | -0.981 ± 0.15 | 0.89 ± 0.18
12 | CCAUAGCAAUAUUACGGUCG | -0.61 ± 0.069 | -0.291 ± 0.095
13 | UAGAAGCAAUAUUACGUUAG | -2.51 ± 0.1 | -0.338 ± 0.093
14 | GAUUAGCAAUAUUACGUAUG | -1.75 ± 0.065 | -1.33 ± 0.087
15 | UACUAGCAAUAUUACGCAUU | -3.73 ± 0.21 | -1.81 ± 0.14
16 | GUCAAGCAAUAUUACGGGCU | -4.5 ± 0.25 | -4.77 ± 0.31
17 | AAUGAGCAAUAUUACGCGUG | -2.11 ± 0.11 | -0.949 ± 0.1
18 | UUGGAGCAAUAUUACGAAGA | -2.83 ± 0.41 | -2.53 ± 0.49
19 | CCGAAGCAAUAUUACGCCCA | -2.41 ± 0.42 | 
20 | GGUAAGCAAUAUUACGUGCC | -3.17 ± 0.39 | -3.07 ± 0.38
21 | UUGUAGCAAUAUUACGCAAG | -1.29 ± 0.17 | -0.849 ± 0.2

Row | Sequence | self-splicing fitness (ln) (30 °C) | self-splicing fitness (ln) (37 °C)
22 | UAGUAGCAAUAUUACGUUGC |  | -1.53 ± 0.44
23 | AAGCAGCAAUAUUACGUAAA | -1.84 ± 0.087 | -0.803 ± 0.11
24 | UACGAGCAAUAUUACGGCCA | -1.61 ± 0.21 | -1.85 ± 0.18
25 | GUCUAGCAAUAUUACGUCGU | -0.819 ± 0.096 | 0.377 ± 0.092
26 | ACCAAGCAAUAUUACGCUUC | -3.27 ± 0.15 | -1.71 ± 0.12
27 | CUACAGCAAUAUUACGAGUC | -3.63 ± 0.24 | -3.18 ± 0.38
28 | AGCGAGCAAUAUUACGCCAU | -4.12 ± 0.46 | -1.58 ± 0.18
29 | CUGAAGCAAUAUUACGAUGG | -0.0919 ± 0.065 | 0.123 ± 0.095
30 | UUAAAGCAAUAUUACGUAGA | -1.55 ± 0.099 | -0.654 ± 0.12
31 | GUAGAGCAAUAUUACGCGCA | -0.299 ± 0.1 | 0.0346 ± 0.13
32 | CCGCAGCAAUAUUACGUCGU | -4.02 ± 0.17 | -2.79 ± 0.15
33 | GAAUAGCAAUAUUACGCUAC | -1.75 ± 0.48 | 
34 | CGUUAGCAAUAUUACGCUUC |  | -2.27 ± 0.36
35 | GGGAAGCAAUAUUACGAAGA |  | -0.943 ± 0.23
36 | AAGUAGCAAUAUUACGCUAU | -4.06 ± 0.35 | -1.9 ± 0.17
37 | GGAUAGCAAUAUUACGAAUA |  | 0.53 ± 0.21
38 | UCUUAGCAAUAUUACGUUGU | -3.61 ± 0.19 | -1.24 ± 0.14
39 | UUUGAGCAAUAUUACGGAAG |  | -1.41 ± 0.43
40 | AUACAGCAAUAUUACGUGGC | -3.22 ± 0.12 | -2.39 ± 0.15
41 | UAACAGCAAUAUUACGCCUC | -2.18 ± 0.35 | -2.06 ± 0.33
